Experimental data: PMC12279946
Substitutions are numbered along the chain they refer to.

Key:
[1] = target: SprT-BR;mono-ubiquitin (Ub1) (Homo sapiens?;, UniProt Q9H040;P0CG48 28-245;1-76, |); assay: NMR 1H,15N-HSQC; 200 uM DNA + 500 uM Ub1; synergistic severe line broadening; NMR: 20 mM HEPES/KOH pH 7.2, 150 mM KCl, 10% D2O, 308 K; 100 uM protein, 2x dsDNA, 5x Ub1; conditions: protein: recombinant;recombinant; copies: 1;1; blunt
SprT-BR = target: T1, SprT-BR (UniProt Q9H040 28-245); assay: NMR 1H,15N-HSQC; 100 uM protein, 200 uM DNA; no ubiquitin; line broadening in ZBD-BR; NMR: 20 mM HEPES/KOH pH 7.2, 150 mM KCl, 10% D2O, 308 K; 100 uM protein, 2x dsDNA, 5x Ub1; conditions: protein: recombinant; blunt
T1 sequence: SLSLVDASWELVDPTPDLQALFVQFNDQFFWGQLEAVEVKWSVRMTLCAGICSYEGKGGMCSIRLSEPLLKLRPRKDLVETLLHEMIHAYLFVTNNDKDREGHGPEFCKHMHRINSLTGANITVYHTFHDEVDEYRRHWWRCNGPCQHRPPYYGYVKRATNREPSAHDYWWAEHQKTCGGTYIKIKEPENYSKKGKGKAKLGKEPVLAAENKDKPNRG

SprT-BR-L99S = target: T2, SprT-BR-L99S (UniProt Q9H040 28-245, L99S); assay: NMR 1H,15N-HSQC; 100 uM protein, 200 uM DNA; no ubiquitin; line broadening comparable to WT; NMR: 20 mM HEPES/KOH pH 7.2, 150 mM KCl, 10% D2O, 308 K; 100 uM protein, 2x dsDNA, 5x Ub1; conditions: protein: recombinant; blunt
T2 sequence: T1 sequence with L72S

Measured: binding result

B1: 15-bp dsDNA (NMR) (dsDNA)
DNA 1: CCTTGCTAGGACATC
DNA 2: GATGTCCTAGCAAGG
binds: all assays above
